Where two headings read alike, the source gives them in different places.
Assays:
[1] = molecular target: the molecule itself; test: negative-stain electron microscopy single-particle reconstruction
[2] = molecular target: the molecule itself; test: as above; remark: listed apart in the source

B1: Methanothermobacter thermautotrophicus MCM (natural protein, UniProt O27798 1-666, looked up)
chain: MMKTVDKSKTLTKFEEFFSLQDYKDRVFEAIEKYPNVRSIEVDYLDLEMFDPDLADLLIEKPDDVIRAAQQAIRNIDRLRKNVDLNIRFSGISNVIPLRELRSKFIGKFVAVDGIVRKTDEIRPRIVKAVFECRGCMRHHAVTQSTNMITEPSLCSECGGRSFRLLQDESEFLDTQTLKLQEPLENLSGGEQPRQITVVLEDDLVDTLTPGDIVRVTGTLRTVRDERTKRFKNFIYGNYTEFLEQEFEELQISEEDEEKIKELAGDPNIYEKIIRSTAPSIHGYREVKEAIALQLFGGTGKELDDKTRLRGDIHILIVGDPGIGKSQMLKYVSKLAPRGIYTSGKGTSGVGLTAAAVRDEFGGWSLEAGALVLGDKGNVCVDELDKMREEDRSAIHEALEQQTISIAKAGIMATLNSRCSVLAAANPKFGRFDSYKSIAEQIDLPSTILSRFDLIFVVEDKPDEEKDRELARHILKTHKEDHMPFEIDPELLRKYIAYARKNVRPVLTDEAMQVLEDFYVSMRASAADEDSPVPITARQLEALVRLSEASAKIKLKEHVEAEDARKAIKLSQACLKQVGYDPETGKIDIDKVEGRTPKSERDKFRLLLELIKEYEDDYGGRAPTNILITEMMDRYNVSEEKVEELIRILKDKGAIFEPARGYLKIV
- stoichiometry N [1]: 12
- stoichiometry N [2]: 14

Source: PMC1635305 (Nucleic Acids Research, 2006)
